# Assay results published in PMC5893644.
# Assays:
# [1] = target: P3a^P18L-RFP (Brassica yellows virus (BrYV-A)); assay: SDS-PAGE and western blot (dimer band under denaturing conditions); total protein of agroinfiltrated N. benthamiana leaves in 2x SDS-PAGE buffer, 100 °C 10 min, 12.5% SDS-PAGE; antisera to GFP or RFP
# [2] = target: His.MBP-P3a^P18L fusion protein (Brassica yellows virus (BrYV-A)); assay: SDS-PAGE and western blot (dimer band under denaturing conditions); E. coli Rosetta (DE3) induced with 0.1 mM IPTG at 18 °C for 20 h; 12.5% SDS-PAGE; anti-MBP monoclonal antibody
# [3] = target: BrYV P3a^P18L, 3xFlag- and GFP-tagged copies (Brassica yellows virus (BrYV-A)); assay: SDS-PAGE and western blot (dimer band under denaturing conditions); total protein of agroinfiltrated N. benthamiana leaves in 2x SDS-PAGE buffer, 100 °C 10 min, 12.5% SDS-PAGE; antisera to GFP or RFP
substance,measurement,setting,value
P3a^P18L-RFP (from UniProt A0A897TIH8 1-45) (natural protein),stoichiometry N,[1],2
His.MBP-P3a^P18L fusion protein (from UniProt A0A897TIH8 1-45) (natural protein),stoichiometry N,[2],2
"BrYV P3a^P18L, 3xFlag- and GFP-tagged copies (from UniProt A0A897TIH8 1-45) (natural protein)",stoichiometry N,[3],2
